Among the data in article PMC3408433, “Selective Cytotoxicity of Amidinopiperidine Based Compounds Towards Burkitt’s Lymphoma Cells Involves Proteasome Inhibition” (PLoS ONE, 2012) are Km values, retold here.

In the series the test system is Cc1cc(=O)oc2cc(NC(=O)[C@H](Cc3ccccc3)NC(=O)[C@@H]3CCCN3C(=O)[C@H](C)NC(=O)[C@H](C)NC(=O)CCC(=O)O)ccc12. The experiment in a line: purified protein, by the assay type. As to conditions: other: mean of six independent experiments, pH 7.8, 30°C.

Protocol: In short, a 1 nM solution of α-chymotrypsin was mixed with various concentrations of the substrate Suc-Ala-Ala-Pro-Phe-AMC. All the solutions were prepared in 144 mM Tris–HCl, pH 7.8. Substrate hydrolysis was monitored at 30°C on an automated Tecan Safire^2 microplate reader (Tecan, Mannedorf/Zürich, Switzerland). The initial rates of the reactions (ΔF/Δt) were measured immediately after the addition of the substrate (within 200 s) and plotted versus substrate concentration with nonlinear regression to fit a Michaelis-Menten plot. The curve fit and kinetic parameters (Km and v max) were calculated using GraphPad PRISM version 5.0 software (GraphPad Software, Inc., CA, USA). […] The initial velocities of the hydrolysis reactions were measured under the same conditions as described for the determination of Km. 50 µl of α-chymotrypsin solution was added to 50 µl of each inhibitor solution (prepared in 144 mM Tris–HCl, pH 7.8; final concentration 1 nM) and incubated at 30°C for 15 min. The reaction was initiated with the addition of 100 µl of substrate. […] The Ki values were determined as mean values of all measurements.

Take α-chymotrypsin (Bos taurus): the Km – broadly, the substrate concentration at which the rate is half of its maximum – was 66 ± 9 µM.
